Reference: the supplement of paper PMC10567573
± gives the standard deviation.

Experiment: protein stability index of a GFP-peptide fusion (GPS, HEK-293T) (PSI 1-6); higher = more stable
[1] = treatment: DMSO, c terminus: a fixed tail appended
[2] = treatment: MLN4924 1 uM, 8 h, c terminus: a fixed tail appended
[3] = treatment: DMSO, c terminus: native
[4] = treatment: MLN4924 1 uM, 8 h, c terminus: native
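Also: 24-mer peptide tiles fused after GFP, lentivirally expressed, FACS-sorted into six equal bins by GFP/DsRed ratio, decoded by Illumina sequencing, PSI is the read-weighted mean bin number.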

Sequence	protein stability index [1]	protein stability index [2]	protein stability index [3]	protein stability index [4]
LLLNNANPNLSNRRGSTPLHMAVE [RIPK4]	2.41 ± 0.25	2.73 ± 0.43	–	–
GTDGYMPRELASMSLVLHGNNLLV [KLHDC10]	2.72 ± 0.68	2.35 ± 0.56	–	–
CKIRIQRQLEIMGKEVSGDQIEDM [STX11]	4.01 ± 0.2	3.94 ± 0.12	–	–
QNQHHSASLQASIFSGAASLGYGT [APBB1IP]	3.19 ± 0.16	3.15 ± 0.17	–	–
LCKDCQVIDGRNVTVTDVDIVFSK [TPPP]	2.89 ± 0.28	3.3 ± 0.47	–	–
LSLLVMVISPVIQLQPTFTPMRVA [NSDHL]	3.08 ± 0.32	3.23 ± 0.087	–	–
KPHRLGDSEHEPVYRAELVGELNG [PWWP2B]	5.01 ± 0.13	4.5 ± 0.4	–	–
YANGGLNYSYRGYGALSSNLQPPA [NOL4L]	2.49 ± 0.36	2.94 ± 0.35	–	–
TPSARRNYRIAGARLMRSNYPPPL [C6orf223]	2.92 ± 0.14	3.08 ± 0.22	–	–
AKGASLFTCDLQHTETGEEVLRMC [VPS39]	3.69 ± 0.055	3.73 ± 0.33	–	–
GRSWPSAPDDSKAQAHRIHIDPEI [PDLIM4]	4.22 ± 0.33	4.31 ± 0.07	–	–
RLVKEGRFVPSNPIGILTTSYCEL [PPTC7]	2.39 ± 0.21	2.12 ± 0.47	–	–
NVKTLKDGKPFPELVLEQQLDREA [PCDHGC5]	5.07 ± 0.33	5.02 ± 0.13	–	–
PMVLKGKIRPDSSRPELLQPLNFV [GLT8D2]	2.83 ± 0.2	3 ± 0.3	–	–
LAATQAEKAVANFDRTEWVQIRRL [ZC2HC1C]	3.45 ± 0.11	3.16 ± 0.37	–	–
SLDESVIYGPGNLSTNNNTLRDHF [SLC2A12]	3.63 ± 0.31	3.6 ± 0.27	–	–
APHQQPPAPPSDALLDLHFPSDHL [TFE3]	4.65 ± 0.087	4.77 ± 0.057	–	–
KYKKAVGLKLKQEKKEAYLKLKQG [WDR88]	2.98 ± 0.87	3.58 ± 0.27	–	–
REWRCCPGHSGVSCEEVAASSASL [EMID1]	3.74 ± 0.089	3.55 ± 0.31	–	–
VWYYCTLTIRESILINNGSRIKGW [TMEM120A]	3.08 ± 0.61	2.96 ± 0.36	–	–
RGVDVSLQGKDAWLPLHYAAWQGH [RIPK4]	2.58 ± 0.42	2.45 ± 0.29	–	–
PQTPAAPPATLGEGSADTEDRKLP [EHMT1]	5.44 ± 0.28	5.36 ± 0.35	–	–
SLASASPPLSGRSTPKLTSRSAAQ [PPFIA4]	4.5 ± 0.31	4.6 ± 0.14	–	–

Sequence	protein stability index [1]	protein stability index [2]	protein stability index [3]	protein stability index [4]
SRRIYRCRNCINLQNEAQKRESFL [IQUB]	2.17 ± 0.42	2.24 ± 0.2	–	–
SVDPIAAFCSSDEELEDSKALLYL [RBBP5]	3.94 ± 0.26	4.08 ± 0.36	–	–
LSVTISFRIYKSVIQAVQKSEEGH [RTN3]	3.26 ± 0.61	3 ± 0.42	–	–
IFCIKRFTKNNFFVEKNPTIVNFP [USP39]	3.02 ± 0.74	2.38 ± 0.76	–	–
GRFCGQQNPPVIKSSGRFLWIKFF [NETO1]	2.1 ± 0.84	2.39 ± 1.1	–	–
YVFFEKDFGDMHSYVRSRKRLREE [TRIB1]	2.46 ± 0.59	2.66 ± 0.93	–	–
TQSNRTSRLIGKKMNRSVSLTIY [WEE1]	–	–	2.19 ± 0.14	2.27 ± 0.15
TISVNQTRVNLSSDTESTDLPSST [DLC1]	4.11 ± 0.15	4.41 ± 0.23	–	–
SVLLGASNADQLMENIGAIQVLPK [KCNAB2]	3.58 ± 0.095	3.6 ± 0.24	–	–
SGSGKSGGYGFGRGRASGFAGSMF [KRT71]	2.8 ± 0.24	2.69 ± 0.41	–	–
FGGNPRFLSLHRAHLGEEAHKCLE [ZNF263]	2.47 ± 0.5	3.14 ± 0.61	–	–
DLINKMLTINPAKRITASEALKHP [CAMK2D]	2.49 ± 0.31	2.64 ± 0.32	–	–
ACTRSLLGDPPPLLTLPRPPLSGA [HDAC6]	3.44 ± 0.37	3.58 ± 0.26	–	–
CKLILSLEPDEDPLCMLLLIDHLA [TCF25]	2.82 ± 0.53	2.95 ± 0.79	–	–
LKQNFSKSWHDMQTTTAYKKTHET [TPD52L1]	3.6 ± 0.25	3.96 ± 0.24	–	–
RNLLVENIIDIYKQESTRPEKKSD [TRIM55]	4.42 ± 0.51	4.73 ± 0.11	–	–
EERKNEMTQVITRTQEEKLEHVRA [TRIM55]	5.3 ± 0.21	5.54 ± 0.21	–	–
FVWYTPPTFMIAVFLPIVVLIFKS [STEAP1]	3.33 ± 1.6	2.81 ± 1.2	–	–
FHALVREIRRKEKEAVLAMEKKSK [RIT1]	2.52 ± 0.6	3.07 ± 0.57	–	–
PPRGPLGQGAMFRLPTDSHFPYDL [NEUROD6]	3.46 ± 0.18	3.59 ± 0.38	–	–
NIGDSSSGLIQTVFISSYMVLAPV [SPNS1]	3.12 ± 0.32	2.67 ± 0.38	–	–
NTGYRLQNNENNISCVERGWSTPP [CFHR2]	3.67 ± 0.19	3.66 ± 0.22	–	–
SSNHGCQHECVNTDDSYSCHCLKG [MATN2]	4.95 ± 0.08	5.1 ± 0.2	–	–

Sequence	protein stability index [1]	protein stability index [2]	protein stability index [3]	protein stability index [4]
LVYDVEVKSHLLDYVMTTLLFSDK [TRIP13]	2.9 ± 0.45	2.92 ± 0.47	–	–
EPTETLLSEKEINAREESLVEELS [BCL2L13]	5.46 ± 0.12	5.55 ± 0.26	–	–
DYLCISFEYSTIKCRDLSALMHEL [BTBD10]	2.5 ± 1.6	2.73 ± 1	–	–
GHGSHSFIYYENMLLGVPRLRQLK [PKD2L1]	2.17 ± 0.12	2.27 ± 0.034	–	–
FYGLLFTSENLKLVHIVCHKKTTH [DFFB]	2.73 ± 0.56	2.58 ± 0.31	–	–
DIALNKHRSRRKWCFWNSSPAVA [RHOBTB1]	–	–	2.46 ± 1.4	2.87 ± 1.8
HNRKVLTIFSASNYYEVGSNRGAY [PPEF2]	2.44 ± 0.28	2.46 ± 0.24	–	–
YPWDENHCKEKRKTSLLDQLTNTS [NETO1]	3.94 ± 0.21	4.07 ± 0.25	–	–
AEMLRFGDRMFYRDWWNSTSFSNY [SOAT2]	2.28 ± 0.52	2.02 ± 0.041	–	–
AIDLNKKGKDNKHPMYRRLVHSAV [ZMYND11]	2.46 ± 0.41	2.92 ± 0.38	–	–
YTNSAGVPSLNAALMHTLQRHRDI [GOSR1]	2.79 ± 0.15	2.92 ± 0.23	–	–
LFSLNVISLTCVSVAFAVAWFLPM [SLC19A2]	3.12 ± 0.48	2.8 ± 0.23	–	–
SAETGSPRLTMHYPCLEKPRIWSL [IRX6]	2.4 ± 0.1	2.22 ± 0.43	–	–
ARTQMILLRRSVEGASSDNGCEVK [PHTF1]	3.68 ± 0.24	3.98 ± 0.2	–	–
LRTLFTDLFEKKGYTFDYAYDWVG [CSNK1G1]	2.2 ± 0.21	2.12 ± 0.39	–	–
HKRAIMPYGVYKKQQKDPSEEAAV [ATE1]	4.3 ± 0.32	4.44 ± 0.11	–	–
LRRELELLGRERDRVQVERDGLAE [PRPH]	4.6 ± 0.49	4.8 ± 0.36	–	–
NGVLLCFYSQEWYARQHCPLKNPT [SOAT1]	2.81 ± 0.31	2.6 ± 0.57	–	–
LPGRGRVLSSWSRAFVSIQEEMAE [RHOBTB2]	3.08 ± 0.54	3.25 ± 0.27	–	–
SSSSRVLLRQQLMRAQAQEQERRE [TFE3]	4.87 ± 0.3	5.02 ± 0.22	–	–
KKVLKKMLKFLAKGEVPKGSCEDE [ATE1]	2.11 ± 0.25	2.25 ± 0.47	–	–
GIEPLYIKAEPASPDSPKGSSETE [ESRRA]	5.57 ± 0.21	5.36 ± 0.33	–	–
LRDKTVMIIVAISPKYKQDVEGAE [TRAF3IP2]	2.4 ± 0.047	2.97 ± 0.69	–	–

Sequence	protein stability index [1]	protein stability index [2]	protein stability index [3]	protein stability index [4]
LDEQNKRPCRKFLLTGQCDFGSNC [ZMAT5]	3.34 ± 0.42	3.323 ± 0.006	–	–
SGGQTSWDSGCLAPPSTRTSHSLP [PLEKHN1]	4.1 ± 0.068	3.98 ± 0.21	–	–
LIFSVQPKSLVRLSLEAVICFKEM [KLHDC2]	1.88 ± 0.17	2.04 ± 0.31	–	–
QELCEGLLEESDGEGEPGQGEGPE [NOP53]	5.6 ± 0.14	5.56 ± 0.11	–	–
TIGASFMTKTVQYQNELHKFLIWD [RAB22A]	2.5 ± 0.45	2.01 ± 0.16	–	–
PTVKDLIGGFTALHYAAMHGRARI [ASB7]	2.56 ± 0.47	2.4 ± 0.43	–	–
DQAGGEGKHITVFKTYISPWERAM [MYOZ1]	2.91 ± 0.27	2.84 ± 0.39	–	–
DPDPDPEPAGGSRPGPAVPGLRAL [CMTM3]	4.92 ± 0.28	4.68 ± 0.11	–	–
SSPRSVDSYSSTQHVPEELDLSSS [ATF6]	5.29 ± 0.52	5.4 ± 0.24	–	–
ILGPSSAYTQTQFHNLRNTLDGYG [NFE2L1]	2.46 ± 0.17	2.33 ± 0.25	–	–
GYFFPTSARDCKFTGNFFYNYMMG [DHCR7]	2.36 ± 0.38	2.36 ± 0.21	–	–
WFIHLVFVVLAFLTGVLCSYPNPN [TMEM192]	3.346 ± 0.002	2.89 ± 0.56	–	–
LDMSQNVSLVTAELSKDAQASAAP [SLC29A1]	5.16 ± 0.12	5.08 ± 0.095	–	–
HSEKMAQYLEEERHMREENLRLQR [CCDC6]	4.91 ± 0.07	4.56 ± 0.25	–	–
FDETSSATTISTSEDGSYGTDVTR [KMT2E]	5.34 ± 0.24	5.49 ± 0.17	–	–
PFFVLNSDVICDFPFQAMVQFHRH [GMPPB]	2.4 ± 0.67	2.34 ± 0.29	–	–
ELQRQKEAEKLERQLALPATEQAA [NOP53]	5.14 ± 0.34	5.42 ± 0.31	–	–
ISSGVVSIWAQNQVENWSAFAPDF [RBBP5]	2.44 ± 0.3	2.4 ± 0.25	–	–
CRLDYRRPENRSFYLALYKQMSFL [TCF25]	2.33 ± 0.6	2.28 ± 0.66	–	–
GGTGSGDGNKIFLCHCGKAFSHKS [ZBTB22]	2.27 ± 0.38	2.58 ± 0.41	–	–
